Experimental data published in publication PMC6712498.

Molecular target: Gaussia princeps luciferase (Gluc)-LiDps fusion protein (Gaussia princeps | Listeria innocua)
Experiment: native gel or EMSA + other: TEM; purified refolded Gluc-LiDps; native gel with HuAFn and LiDps as molecular weight markers, and morphological characterization by TEM

- stoichiometry N: 12 subunits
Substance: Gaussia princeps luciferase (Gluc)-LiDps fusion protein
